{
  "source": "paper PMC11098746",
  "about": "(2024)",
  "binders": {"B1": {"name": "ADP172 (protein)", "chain": "YLEQIKNGISGHYTEDHNIKNNNCISFSDYERSIKNFAISSHAENNYDNIINEYKKIKDINNNINILSSVHRKGRILYDSFLEINKLENDKKEKHEKEDEYEDNDESFLETEEYEDNEDEKYNKDEDDYAESFIETDEYEDNEDDKYNKDEDDYSESFIETDEYDDNEEEQYNKDEDDYTDSFIETDHYENNDDKNEEEEEYNDQDNDYGYNFLETDEYDDSEEYDYDDKEYGESFLEKEEGEEMKDEEMKDEEMKDVEMKDEEMKDEEMKYDEMKNEEMKYDEMKDEVMKDEEMKDEVMKDEEMKDEQMKYEEFKNEESKNEESKNEESKNEESKNEEFKNEESKNEEFKNEEFKNEDMSYDEYMGYKKKEEDESYNTFNGAKKNNAANSFLEKDLQGDSDDELHSTFYSKNVDKENYDDKNIFYGYSDNDDESFLETDSYEEYEDEDKDVEDEYEESFLQNDEKKMVFYDLYKPEENEAYYEKKQKKEEKEEKEEKEQSLNKQNDMEDQEDNEEYKFEEENKEDLLDVQQDEELPSEGKQKVKGKSFDNEHLNEIQNVADVHAFIQKDMKYLDDLIDEEQTIKDAVKKSAYKGNKKLGNNKKSQMILEEEPEENFEEDADEELNKLMEQEKNIVDKEIKNSKANKANKKLQFNNANKQNKMYMKNEYNNKAKNNKNNKFEQQNYDESYMDDDYEQNEEFNDNNQAEDMKETNELDKINDELLTDQGPNEDTLLENNNKIFDNKFVAHKKREKSISPHSYQKVSTKVQNKEDMENKEEKQLINDEAAMTAEELVELENTEDVNTPTMVETEEIDSDENGNKAS", "modifications": "bait human Fc-tagged dimer; N-glycosylation sequons mutated in Plasmodium baits"}, "B2": {"name": "ADP193 (protein)", "chain": "GEEKLTKFDPVMIKEGELFGEVSYDCEYSGFLEIENDDILYYCFFVGEDDHNGLLLRKFHMDDMVWGIPMEVLITRKKINLYILTVDYILSKLILIYSFDEKIRITVFNNYMEESVMSEKISINYEILYKANMISYITYFYKNKKSLCVCGMNRNENILCTFSFDYGLTMKDDHTIEFFLKKKIPLGHYKMQVTFKETEVYFNLYNDLNEANFYELKCVKKQDEYICDIMNKIRETQEYNYKRYTYPSSEHNKYYNDHHNKQPQGKQGQQGGAPLPNLGEEENNFIYKHIVRNKYFQMIVFQKDQKCYLAWSFNSLNINDEITKEISSVPCSNVASYYRQERLIVTLKKNQLGSRNHFFLIYEKLTEKGVGCEFGVGGSLYVTKTFMNNACDMDINNMNVATTNYDEINFALIIPLSFQLNYATCFIWEENVDNNEERSSLYYLEEYTNEKEDIKVYTFYFYKYILIYKNFKKSTCTFESKNNEKLYISFRGDTYYKEYNCNILLDSCDFFLHTQSKINIAYDDDVWQVSEELYDGFVMYNGAYVSLYDVLSRSNAHGLIYIDGKENNAAINLNNIKNNNNNNNNNNNNNNAANNNNIANNANSNNAFGEHEKVITIIIPYGIPSTRTIKIEFLNKQNNEEKRWAYLRLQKNEYIMKKVIGINSADIFDLSYKYYKYNQEKIKFILNDFSETTYLGFICQTKEEIKKSLCTISLVDHSHKNMAINNLFKTNNHILPFLYDQSPPRKIQPYNQIISEFRFVLFKNFHLFLQENKINYILLKCMCSSSSSYINTQKNIELSYLITNEQVSHDFIHTPGILIRPRTNIAHNDYQKNNKGNHKGNNKANNKANDKDSNNNANNNANKNGNNHNDNNNNNQNKDIDINSNYAIHNNNEKVKRTKKKINDAPYDKQDEELPSYDFNDLLHEKKNGASVFDFNFVLFLFICITFF", "modifications": "bait human Fc-tagged dimer; N-glycosylation sequons mutated in Plasmodium baits"}},
  "experiment_in_all_cases": "AVEXIS screen signal:noise (double-corrected)",
  "key": {"[1]": {"biological_target": "T1, ADP389", "T1 chain": "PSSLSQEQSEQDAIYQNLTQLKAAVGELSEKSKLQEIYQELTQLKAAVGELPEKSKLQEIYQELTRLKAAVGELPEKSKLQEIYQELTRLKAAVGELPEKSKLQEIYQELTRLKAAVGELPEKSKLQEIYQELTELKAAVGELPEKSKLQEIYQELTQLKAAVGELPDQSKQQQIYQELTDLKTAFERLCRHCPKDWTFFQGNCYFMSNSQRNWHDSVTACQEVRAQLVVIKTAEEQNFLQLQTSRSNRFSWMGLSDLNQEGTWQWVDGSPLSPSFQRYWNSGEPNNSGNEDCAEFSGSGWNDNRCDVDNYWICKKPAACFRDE"}, "[2]": {"biological_target": "T2, ADP334", "T2 chain": "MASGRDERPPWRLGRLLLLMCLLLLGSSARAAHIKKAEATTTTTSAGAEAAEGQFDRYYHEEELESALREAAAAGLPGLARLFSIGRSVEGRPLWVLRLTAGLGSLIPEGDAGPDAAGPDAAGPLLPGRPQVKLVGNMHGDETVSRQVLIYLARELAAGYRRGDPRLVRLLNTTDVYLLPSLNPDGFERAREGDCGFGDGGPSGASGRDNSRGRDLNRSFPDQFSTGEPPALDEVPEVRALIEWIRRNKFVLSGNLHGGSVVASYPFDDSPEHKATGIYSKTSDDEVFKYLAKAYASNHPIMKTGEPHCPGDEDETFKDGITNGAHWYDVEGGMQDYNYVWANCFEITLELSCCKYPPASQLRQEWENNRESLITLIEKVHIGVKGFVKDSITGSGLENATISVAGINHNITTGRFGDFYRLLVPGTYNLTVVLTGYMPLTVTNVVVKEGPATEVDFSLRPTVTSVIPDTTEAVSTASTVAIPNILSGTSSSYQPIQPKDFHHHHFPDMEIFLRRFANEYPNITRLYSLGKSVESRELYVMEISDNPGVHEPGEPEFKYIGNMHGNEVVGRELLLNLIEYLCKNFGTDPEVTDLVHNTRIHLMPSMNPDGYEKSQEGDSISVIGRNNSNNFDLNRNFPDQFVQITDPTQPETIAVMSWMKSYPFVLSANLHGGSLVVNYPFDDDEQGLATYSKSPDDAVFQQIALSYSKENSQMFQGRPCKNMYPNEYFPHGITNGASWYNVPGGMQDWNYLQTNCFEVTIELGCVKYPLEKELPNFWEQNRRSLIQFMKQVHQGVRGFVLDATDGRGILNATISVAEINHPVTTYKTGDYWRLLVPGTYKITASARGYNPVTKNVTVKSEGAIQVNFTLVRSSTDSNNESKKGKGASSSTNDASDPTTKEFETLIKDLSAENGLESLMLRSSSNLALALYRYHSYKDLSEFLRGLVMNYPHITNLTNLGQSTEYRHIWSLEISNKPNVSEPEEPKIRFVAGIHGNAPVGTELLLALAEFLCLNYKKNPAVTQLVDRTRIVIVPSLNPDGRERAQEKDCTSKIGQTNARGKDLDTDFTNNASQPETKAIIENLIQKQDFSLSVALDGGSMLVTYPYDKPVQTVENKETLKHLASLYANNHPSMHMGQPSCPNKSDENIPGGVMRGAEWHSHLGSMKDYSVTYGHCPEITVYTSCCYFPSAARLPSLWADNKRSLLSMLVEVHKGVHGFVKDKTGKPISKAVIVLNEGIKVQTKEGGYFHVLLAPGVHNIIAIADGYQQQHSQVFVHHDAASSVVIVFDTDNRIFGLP"}, "[3]": {"biological_target": "T3, ADP320", "T3 chain": "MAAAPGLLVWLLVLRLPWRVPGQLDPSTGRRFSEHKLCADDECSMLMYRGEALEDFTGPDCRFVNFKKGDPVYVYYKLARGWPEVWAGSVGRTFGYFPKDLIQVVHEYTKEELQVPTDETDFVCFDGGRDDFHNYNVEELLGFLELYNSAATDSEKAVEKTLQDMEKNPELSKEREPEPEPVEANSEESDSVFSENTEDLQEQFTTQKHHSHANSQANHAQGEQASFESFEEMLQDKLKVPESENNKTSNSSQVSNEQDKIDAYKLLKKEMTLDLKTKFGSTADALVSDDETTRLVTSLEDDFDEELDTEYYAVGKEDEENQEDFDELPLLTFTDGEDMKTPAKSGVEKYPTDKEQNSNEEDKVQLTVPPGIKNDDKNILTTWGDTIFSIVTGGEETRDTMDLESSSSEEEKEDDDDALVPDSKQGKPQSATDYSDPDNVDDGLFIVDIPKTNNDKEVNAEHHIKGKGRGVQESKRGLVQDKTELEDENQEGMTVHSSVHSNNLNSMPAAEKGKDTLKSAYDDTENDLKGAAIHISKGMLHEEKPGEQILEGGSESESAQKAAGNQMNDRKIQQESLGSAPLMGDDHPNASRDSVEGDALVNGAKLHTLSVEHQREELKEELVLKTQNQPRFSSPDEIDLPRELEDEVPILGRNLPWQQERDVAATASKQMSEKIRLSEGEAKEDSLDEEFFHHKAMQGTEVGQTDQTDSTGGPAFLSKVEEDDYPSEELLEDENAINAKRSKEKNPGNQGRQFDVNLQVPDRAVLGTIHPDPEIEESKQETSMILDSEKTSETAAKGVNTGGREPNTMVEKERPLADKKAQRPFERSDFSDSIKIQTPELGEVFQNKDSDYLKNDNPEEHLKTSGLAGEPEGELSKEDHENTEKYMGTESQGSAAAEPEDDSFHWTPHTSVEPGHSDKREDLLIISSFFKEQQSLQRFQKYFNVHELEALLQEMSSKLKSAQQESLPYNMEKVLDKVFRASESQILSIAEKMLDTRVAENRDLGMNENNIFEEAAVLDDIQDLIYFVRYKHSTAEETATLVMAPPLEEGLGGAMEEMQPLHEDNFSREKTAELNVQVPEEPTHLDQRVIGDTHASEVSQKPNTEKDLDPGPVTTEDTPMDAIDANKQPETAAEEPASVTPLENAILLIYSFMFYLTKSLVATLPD"}, "[4]": {"biological_target": "T4, ADP375", "T4 chain": "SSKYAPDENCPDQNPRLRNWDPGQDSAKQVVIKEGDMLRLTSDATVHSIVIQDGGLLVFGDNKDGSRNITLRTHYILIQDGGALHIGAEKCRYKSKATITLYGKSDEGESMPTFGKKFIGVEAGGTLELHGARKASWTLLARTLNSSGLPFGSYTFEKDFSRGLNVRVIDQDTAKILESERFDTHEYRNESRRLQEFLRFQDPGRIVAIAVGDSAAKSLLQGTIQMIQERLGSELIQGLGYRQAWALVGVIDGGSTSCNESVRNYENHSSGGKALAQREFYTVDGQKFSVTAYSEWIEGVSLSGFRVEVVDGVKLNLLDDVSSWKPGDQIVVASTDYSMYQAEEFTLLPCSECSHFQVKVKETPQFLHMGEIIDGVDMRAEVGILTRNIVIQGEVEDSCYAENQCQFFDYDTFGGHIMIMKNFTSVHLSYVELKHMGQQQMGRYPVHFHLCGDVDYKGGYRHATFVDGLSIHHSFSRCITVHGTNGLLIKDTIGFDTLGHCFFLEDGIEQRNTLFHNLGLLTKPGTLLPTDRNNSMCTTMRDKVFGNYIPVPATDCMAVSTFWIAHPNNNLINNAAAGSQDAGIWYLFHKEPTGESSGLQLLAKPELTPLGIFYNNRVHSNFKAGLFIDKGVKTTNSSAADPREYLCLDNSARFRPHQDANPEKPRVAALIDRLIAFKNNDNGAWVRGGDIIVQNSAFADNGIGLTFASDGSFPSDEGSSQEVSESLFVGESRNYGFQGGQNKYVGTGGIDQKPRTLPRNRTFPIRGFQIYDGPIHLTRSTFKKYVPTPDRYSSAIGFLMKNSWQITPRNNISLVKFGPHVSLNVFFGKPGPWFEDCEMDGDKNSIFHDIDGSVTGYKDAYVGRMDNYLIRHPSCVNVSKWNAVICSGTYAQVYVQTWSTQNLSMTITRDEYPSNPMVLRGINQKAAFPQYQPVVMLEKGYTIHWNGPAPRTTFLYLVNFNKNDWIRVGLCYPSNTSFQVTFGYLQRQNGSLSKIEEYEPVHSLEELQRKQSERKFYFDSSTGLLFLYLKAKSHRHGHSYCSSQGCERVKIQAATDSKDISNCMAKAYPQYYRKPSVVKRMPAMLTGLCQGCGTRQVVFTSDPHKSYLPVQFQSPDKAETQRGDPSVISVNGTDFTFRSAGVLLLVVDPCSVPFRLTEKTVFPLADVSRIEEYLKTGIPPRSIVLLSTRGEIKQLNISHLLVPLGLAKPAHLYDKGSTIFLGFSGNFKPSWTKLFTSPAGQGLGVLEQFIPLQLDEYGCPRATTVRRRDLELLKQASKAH"}, "[5]": {"biological_target": "ADP326"}},
  "data": [
    {"binder": "B1", "values": [
      {"measurement": "binding score", "setting": "[1]", "value": 7.86},
      {"measurement": "binding score", "setting": "[2]", "value": 13.1}
    ]},
    {"binder": "B2", "values": [
      {"measurement": "binding score", "setting": "[3]", "value": 7.53},
      {"measurement": "binding score", "setting": "[4]", "value": 8.14},
      {"measurement": "binding score", "setting": "[5]", "value": 9.3}
    ]}
  ]
}
